1 substance from PMC7261407 can be followed below.

The target in this test is trimeric gp140 clade A HIV-1 92/UG/037 (HIV-1 clade A strain 92/UG/037). The experiment in a line: SPR.

GNA (natural protein) showed a Kd of 7.2 nM.
